For one substance, KD without m3 or m4 (untreated control) results are on record in PMC8024337.

For this assay, the target named is Ror2-mCherry (xRor2-mCherry in pCS2+). Description: fluorescence cross-correlation spectroscopy (FCCS); plasma membrane of live PAC2 cells expressing GFP-Vangl2 and Ror2-mCherry; untreated control (no Wnt protein added); laser spot scanned across the membrane for 16 s; diffusion with triplet fit.

“GFP-Vangl2 (meGFP-Vangl2 in pcDNA3.1) (from UniProt Q8UVJ6 1-526) (natural protein)” displayed a KD without m3 or m4 (untreated control) greater than 1100 nM.
